Reference: the supplement of paper PMC10567573

B1: SMOC2 (parent)
chain: PALETQPQGDEEDIASRYPTLWTE
B2: TSN (parent)
chain: FVELQGFLAAEQDIREEIRKVVQS

Variants of: B1
Assay: protein stability index of a GFP-peptide fusion (GPS, HEK-293T) (PSI 1-6); higher = more stable
Conditions: c terminus: a fixed tail appended
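Further: lentivirally expressed fusions sorted by FACS into six bins by GFP to DsRed ratio, PSI derived from sequencing read proportions per bin multiplied by bin number.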

Protein stability index: each site, then its substitutions
T23: S 5.28; W 5.08; V 2.74; D 5.55; R 5.13; N 5.66; Q 4.43; Y 5.37
E11: P 4.82; N 4.26; R 3.98; K 3.92
G9: S 5.09; A 4.92; I 4.08; L 4.84; M 4.76; C 5.16; K 4.55; F 4.89; W 4.62; E 5.22; R 4.34
D10: K 3.53; W 3.98; F 3.39; Y 3.51; G 3.68; A 4.36; R 3.86
L3: E 5.59; Y 4.81; D 5.37; C 5.01; T 4.9; V 4.87; K 4.27; P 5.08; H 4.36; Q 4.97
E4: D 4.91; T 4.46; G 4.07; I 3.21
E12: L 3.68; Q 4.42; D 4.41; N 4.11; K 3.56; V 3.75
P7: G 4.5; M 4.62; A 4.07
A2: C 4.4; M 4.6; T 4.11; K 4.13; E 4.48; V 4.67; H 4.74
P19: E 5.49; C 5.15; I 4.24; A 5.73; K 4.32
W22: L 5.78; H 5.48; E 5.2; T 5.67; N 5.8
L21: T 3.98; E 5.39; W 5.13; F 4.27; Y 3.92; S 4.75
R17: E 4.5; Q 4.78; G 4.71; I 4.73; P 4.53; W 4.2; V 4.36; T 4.29
T20: K 4.37; I 3.3; R 3.88; E 4.41; C 3.77; N 4.27
I14: T 5.06; Y 4.39; N 5.01; W 3.97; P 4.99
Q6: G 5.04; T 4.7; E 4.39; D 4.92; Y 4.66
Q8: C 5.05
Y18: H 4.87; Q 4.39; K 3.34; A 4.64
T5: G 4.3; A 4.8; E 4.99; R 4.93; V 3.77; H 4.64; S 4.3; D 5.12
D13: P 3.63; H 3.71; S 3.97; I 3.65; T 4.23; W 4.68; L 3.84
S16: P 5.27; M 5.09; K 4.18; Y 4.31; H 3.96
E24: K 5.17; C 4.22; S 4.78; R 4.81; M 3.94
A15: R 4.53; H 4.11; M 4.67; T 4.36
P1: G 4.33; D 4.56

Variants of: B2
Assay: as above
Conditions: c terminus: a fixed tail appended

Protein stability index of substitutions, site by site:
F1: A 3.48; C 3.1; G 3.24; H 3.96; I 2.08; K 3.83; L 4.18; N 3.67; P 2.9; R 3.12; T 3.62; W 1.14; Y 3.21
V2: A 2.37; D 4.19; E 3.95; F 1.75; G 1.75; I 1.51; K 3.83; L 1.67; M 2.3; N 3.06; P 2.47; Q 1.17; R 3.34; S 1.65; T 1.68; W 1.33; Y 2.31
E3: C 2.23; F 1.6; H 2.9; K 1.4; M 2.97; N 2.45; P 1.53; Q 2.4; R 1.25; S 2.08; T 2.59; W 1.75; Y 1.64
L4: D 2.22; E 2.17; H 1.52; I 1.79; K 1.8; M 2.15; N 1.43; Q 1.35; R 1.97; T 3.35; W 1.21
Q5: A 1.58; C 5.07; D 1.23; K 2.12; V 2.38; W 1
G6: C 1.56; E 2.06; F 1.68; I 2.19; M 2.16; N 2.42; S 1.85; T 2.32
F7: A 1.64; C 2.68; D 2.84; E 3.11; G 2.33; H 2.14; K 1.31; M 2.01; N 2.71; R 2.04; T 2; V 2.04; Y 1.33
L8: C 1.83; D 2.68; E 2.44; G 1.07; K 1.72; M 2.07; N 2.31; P 2.99; Q 1.37; R 3.58; S 1.47; Y 1.8
A9: E 2.47; G 1.62; I 2.48; K 1.73; L 1.57; M 1.78; N 2.25; P 1.02; Q 1.63; R 1.93; W 3.23
A10: C 1.04; D 1.35; E 4.05; F 2.15; H 1.74; I 2.04; K 1.62; M 2.2; R 1.8
E11: A 1.05; C 1.92; D 1.39; F 1.29; I 1.86; K 2.13; L 2.02; N 2.16; R 2.52; W 3.13; Y 2.09
Q12: A 3.3; C 1.92; E 3.62; K 2.24; M 2.17; P 1.39; R 3.99; V 2.6
D13: A 3.62; F 1.85; H 2.78; M 2.91; N 3.27; S 1.52
I14: A 2.73; D 1.4; E 3.21; R 1.64; T 2.01; W 2.36; Y 1.23
R15: C 1.82; D 1.26; E 2.06; G 1.41; H 1.91; L 2.35; M 1.83; N 1.03; S 1.98; W 1.39; Y 1.76
E16: D 3.34; H 1.34; L 1.76; R 2.3; S 1.18; T 1.14
E17: G 2.42; H 2.3; L 2.69; M 2.49; R 1.48; V 2.91; Y 1.93
I18: A 1.82; D 1.62; F 2.06; H 1.24; L 2.87; P 3.43; R 1.68; S 1.75; Y 2.13
R19: A 2.44; C 2.32; D 1.6; G 3; I 1.78; K 2.67; N 2.38; Q 3.16; S 3.87; T 2.25; V 1.97; Y 1.46
K20: A 2.27; C 2.75; G 1.7; H 1.94; I 3.91; L 1.83; M 1.89; P 2.1
